Laboratory results: article PMC10720265

Assays:
Test in all cases: MYC IP followed by mass spectrometry (IP-MS)
Details in all cases: three biological replicates; HeLa cell lysates; signals normalized to bait protein levels; read off a plot
[1] = biological target: ARS2, endogenous in HeLa cells
[2] = biological target: NCBP2, CBC component, endogenous in HeLa cells (UniProt P52298)
[3] = biological target: NCBP1, CBC component, endogenous in HeLa cells (UniProt Q09161)
Chain of UniProt Q09161 (Q09161 whole entry): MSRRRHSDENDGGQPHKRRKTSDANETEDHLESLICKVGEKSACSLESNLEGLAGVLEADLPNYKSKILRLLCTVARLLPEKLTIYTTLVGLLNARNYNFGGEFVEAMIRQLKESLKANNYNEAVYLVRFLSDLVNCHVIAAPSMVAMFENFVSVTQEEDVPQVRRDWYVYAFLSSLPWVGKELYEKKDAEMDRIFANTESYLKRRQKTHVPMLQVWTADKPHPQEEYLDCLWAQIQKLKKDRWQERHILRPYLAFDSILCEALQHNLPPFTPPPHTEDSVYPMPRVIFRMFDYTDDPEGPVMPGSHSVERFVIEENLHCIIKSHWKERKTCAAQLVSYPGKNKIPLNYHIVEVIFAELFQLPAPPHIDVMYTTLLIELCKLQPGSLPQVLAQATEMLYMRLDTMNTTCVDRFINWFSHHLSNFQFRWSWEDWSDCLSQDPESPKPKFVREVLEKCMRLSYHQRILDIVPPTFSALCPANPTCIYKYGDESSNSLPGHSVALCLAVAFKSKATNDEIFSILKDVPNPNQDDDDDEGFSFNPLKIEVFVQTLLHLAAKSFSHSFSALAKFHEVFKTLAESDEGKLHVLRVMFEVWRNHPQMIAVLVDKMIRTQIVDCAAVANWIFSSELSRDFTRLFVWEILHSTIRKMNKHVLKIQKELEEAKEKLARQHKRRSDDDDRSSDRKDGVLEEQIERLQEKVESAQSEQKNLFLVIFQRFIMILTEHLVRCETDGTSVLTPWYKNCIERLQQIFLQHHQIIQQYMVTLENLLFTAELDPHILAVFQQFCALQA

Chain of UniProt P52298 (P52298 whole entry): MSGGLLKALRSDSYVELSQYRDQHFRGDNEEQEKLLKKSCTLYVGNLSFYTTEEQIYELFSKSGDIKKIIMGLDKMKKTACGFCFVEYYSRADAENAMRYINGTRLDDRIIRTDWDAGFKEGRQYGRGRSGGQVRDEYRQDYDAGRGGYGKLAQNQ

“Z1^1-209(WT), MYC-tagged N-terminal fragment of human ZFC3H1 (from UniProt O60293) … -> … (E->A; E->A; D->A; E->A; residue numbers not printed)” showed an other: log2 fold change (Z1 1-209(WT)/Z1 1-209(MUT)) [1] of 6.9 log2, an other: log2 fold change (Z1 1-209(WT)/Z1 1-209(MUT)) [2] of 1.8 log2 and an other: log2 fold change (Z1 1-209(WT)/Z1 1-209(MUT)) [3] of 2.1 log2.
